Results published in patent publication US20140120106A1, “Stimulation of Arterial Collateral Growth and Lymphogenesis” (YALE UNIVERSITY, priority 2011, published 2014).

Target: T1, HA-tagged human Raf1 S259A (human, UniProt P04049 1-648)
T1 construct: Overexpressed in HUVEC by lentivirus, immunoprecipitated from Triton lysates with anti-HA; also called Raf1SA; RAF1 Ser259 to Ala259 mutant; not shown: HA (hemagglutinin) tag
Test: co-immunoprecipitation (anti-HA) from lentivirus-infected HUVEC lysates, western blot

B1: 14-3-3 (other, human, UniProt P63104 1-245, looked up)
chain: MDKNELVQKAKLAEQAERYDDMAACMKSVTEQGAELSNEERNLLSVAYKNVVGARRSSWRVVSSIEQKTEGAEKKQQMAREYREKIETELRDICNDVLSLLEKFLIPNASQAESKVFYLKMKGDYYRYLAEVAAGDDKKGIVDQSQQAYQEAFEISKKEMQPTHPIRLGLALNFSVFYYEILNSPEKACSLAKTAFDEAIAELDTLSEESYKDSTLIMQLLRDNLTLWTSDTQGDEAEAGEGGEN
notes: The results speak only of '14-3-3'; the zeta isoform is inferred from the antibody list; Endogenous protein in the cell lysate; also called 14-3-3 protein; 14-3-3ζ
B1: no binding.
